Tests used:
[1] = biological target: T1, mouse Galectin-3 (mouse, UniProt P16110 2-264, limits assumed); experiment: ELISA screening (Table 1, antigen target)
T1 construct: also called mLGALS3; mouse LGALS3

[2] = biological target: T2, human Galectin-3 (human, UniProt P17931 1-250); experiment: SPR, antibody captured on anti-mouse Fc surface, 8-pt 2-fold dilution series of LGALS3 from 500 nM
T2 construct: In the laminin assay it was biotin-labelled; also called LGALS3; Gal3
Method: SPR: Antibody binding to LGALS3 was confirmed by surface plasmon resonance (SPR) assay. The antibody was captured on an anti-mouse Fc surface and an 8-pt. 2-fold dilution series of LGALS3 was flown over the antibody starting at 500 nM.

T2 sequence (P17931 whole entry): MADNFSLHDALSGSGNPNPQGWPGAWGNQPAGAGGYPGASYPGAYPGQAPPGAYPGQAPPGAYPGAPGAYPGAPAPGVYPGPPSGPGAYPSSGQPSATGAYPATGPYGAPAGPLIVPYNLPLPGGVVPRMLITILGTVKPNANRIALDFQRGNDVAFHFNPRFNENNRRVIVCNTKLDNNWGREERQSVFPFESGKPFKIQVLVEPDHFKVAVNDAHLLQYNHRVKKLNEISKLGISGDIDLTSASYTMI
T1 sequence (P16110 2-264 limits assumed): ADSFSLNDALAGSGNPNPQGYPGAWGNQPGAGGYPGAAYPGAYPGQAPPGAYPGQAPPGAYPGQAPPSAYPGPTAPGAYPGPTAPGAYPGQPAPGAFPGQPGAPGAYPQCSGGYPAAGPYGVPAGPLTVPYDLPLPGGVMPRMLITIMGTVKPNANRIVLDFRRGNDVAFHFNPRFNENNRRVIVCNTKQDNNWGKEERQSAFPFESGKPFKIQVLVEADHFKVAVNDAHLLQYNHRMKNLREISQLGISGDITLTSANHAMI

- binding result [1]: binds
- Kd [2]: 14.6 nM
B1: 112516.14D11.2D2 (antibody, V domains shown)
VH: QVQLKESGPGLVAPSQSLSITCTISGFSLSSYGVHWVRQPPGKGLEWLVVIWSDGSTTYNSTLKSRLSISKDNSKSQVFLKMNSLQTDDTAMYYCARHISNYGTMDYWGQGTSVTVS
VL: DIQMTQTTSSLSASLGDRVTISCRASQDIRNYLNWYQQKPDGSIKLLIYYTSRLHSGVPSRFSGSGSGTDYSLTIRNLEQEDIATYFCQHFNTLPPTFGGGTKLEIK
